Experimental data: patent US20120058906A1 (published 2012)

Columns and labels:
[1] = biological target: T1, rHuman P-Cadherin/Fc Chimera, CF (R&D Systems Cat#861-PC) (human, UniProt P22223 108-654); experiment: ECL (MSD multi-spot), antigen on plate, Fab 2 nM
T1 construct: Bought Fc chimera; also called CDH3; not shown: Fc of the bought chimera

[2] = biological target: T2, rHuman ErbB2/Fc Chimera, CF (R&D Systems Cat#1129-ER) (human, UniProt P04626 23-652); experiment: ECL (MSD multi-spot), antigen on plate, Fab 2 nM
T2 construct: Bought Fc chimera; also called HER2/neu; not shown: Fc of the bought chimera

[3] = biological target: T3, rHuman CD44/Fc Chimera, CF (R&D Systems Cat#3660-CD) (human, UniProt P16070 21-220); experiment: MSD ECL multi-spot plate; Fab 130 nM; blank spot 1153
T3 construct: Fc part of the bought chimera not given

[4] = biological target: T4, Recombinant Human DLL4 (R&D Systems Cat#1506-D4/CF) (human, UniProt Q9NR61 27-524); experiment: as above
T4 construct: also called delta-like protein 4

[5] = biological target: T5, rHuman IGF-1 sR, (IGF-1 sR), CF (R&D Systems Cat#391-GR) (human, UniProt P08069 31-932); experiment: as above
T5 construct: also called insulin-like growth factor-1 soluble receptor; IGF-R1

[6] = biological target: T6, rHuman EGF R/Fc Chimera, CF (R&D Systems Cat#344-ER) (human, UniProt P00533 25-645); experiment: as above
T6 construct: also called epidermal growth factor receptor; Fc part of the bought chimera not given

[7] = biological target: T7, rHuman ErbB2/Fc Chimera, CF (R&D Systems Cat#1129-ER) (human, UniProt P04626 23-652); experiment: as above
T7 construct: also called HER2/neu; human epidermal growth factor 2 receptor; Fc part of the bought chimera not given

[8] = biological target: T8, rHuman Notch-1/Fc Chimera, CF (R&D Systems Cat#3647-TK) (human, UniProt P46531 19-526); experiment: as above
T8 construct: Fc part of the bought chimera not given

[9] = biological target: T9, rHuman Erythropoietin R/Fc Chimera, CF (R&D Systems Cat#963-ER) (human, UniProt P19235 25-250); experiment: as above
T9 construct: also called EPO R/Fc; Epo R; Fc part of the bought chimera not given
T9 sequence: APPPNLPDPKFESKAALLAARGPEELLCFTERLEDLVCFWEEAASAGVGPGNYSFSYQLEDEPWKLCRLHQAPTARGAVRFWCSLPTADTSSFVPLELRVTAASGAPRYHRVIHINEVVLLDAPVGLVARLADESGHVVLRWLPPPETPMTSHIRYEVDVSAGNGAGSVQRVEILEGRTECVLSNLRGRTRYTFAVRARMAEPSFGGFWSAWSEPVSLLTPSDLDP

[10] = biological target: T10, rHuman HGF R/c-MET/Fc Chimera, CF (R&D Systems Cat#358-MT/CF) (human, UniProt P08581 25-932); experiment: as above
T10 construct: also called HGF R/Fc; hepatocyte growth factor receptor; Fc part of the bought chimera not given

[11] = biological target: T11, rHuman CD44/Fc Chimera, CF (R&D Systems Cat#3660-CD) (human, UniProt P16070 21-220); experiment: MSD ECL multi-spot plate, antigen immobilized; Fab 8 nM; blank spot 479
T11 construct: Purchased Fc chimera; not shown: Fc portion of the purchased chimera

[12] = biological target: T12, rHuman IGF-1 sR (IGF-1 sR), CF (R&D Systems Cat#391-GR) (human, UniProt P08069 31-932); experiment: as above
T12 construct: Purchased soluble receptor; also called insulin-like growth factor-1 soluble receptor; IGF-R1

[13] = biological target: T13, rHuman ErbB2/Fc Chimera, CF (R&D Systems Cat#1129-ER) (human, UniProt P04626 23-652); experiment: as above
T13 construct: Purchased Fc chimera; also called HER2/neu; not shown: Fc portion of the purchased chimera

[14] = biological target: T14, rHuman P-Cadherin/Fc Chimera, CF (R&D Systems Cat#861-PC) (human, UniProt P22223 108-654); experiment: as above
T14 construct: Purchased Fc chimera; not shown: Fc portion of the purchased chimera

[15] = biological target: T15, Recombinant Human DLL4 (R&D Systems Cat#1506-D4/CF) (human, UniProt Q9NR61 27-524); experiment: as above
T15 construct: Purchased recombinant protein; also called delta-like protein 4

[16] = biological target: T16, rHuman HGF R/c-MET/Fc Chimera, CF (R&D Systems Cat#358-MT/CF) (human, UniProt P08581 25-932); experiment: as above
T16 construct: Purchased Fc chimera; also called HGF R/Fc; not shown: Fc portion of the purchased chimera

[17] = biological target: T17, rHuman Erythropoietin R/Fc Chimera, CF (R&D Systems Cat#963-ER) (human, UniProt P19235 25-250); experiment: as above
T17 construct: Purchased Fc chimera; also called EPO R/Fc; Epo R; not shown: Fc portion of the purchased chimera
T17 sequence: T9 sequence

[18] = biological target: T18, rHuman Notch-1/Fc Chimera, CF (R&D Systems Cat#3647-TK) (human, UniProt P46531 19-526); experiment: as above
T18 construct: Purchased Fc chimera; not shown: Fc portion of the purchased chimera

[19] = biological target: T19, rHuman EGF R/Fc Chimera, CF (R&D Systems Cat#344-ER) (human, UniProt P00533 25-645); experiment: as above
T19 construct: Purchased Fc chimera; not shown: Fc portion of the purchased chimera
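Further: blank spot per well as comparator with Hit at signal to blank ratio of 4 or more.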

B1: Fab VH1-46_IGHD6-6*01_IGHJ1*01_S102A_S103P_S104F & L6_IGKJ1*01_S30N (Fab, V domains shown)
VH: QVQLVQSGAEVKKPGASVKVSCKASGYTFTSYYMHWVRQAPGQGLEWMGIINPSGGSTSYAQKFQGRVTMTRDTSTSTVYMELSSLRSEDTAVYYCAREEYAPFSAEYFQHWGQGTLVTVSS
VL: EIVLTQSPATLSLSPGERATLSCRASQSVNSYLAWYQQKPGQAPRLLIYDASNRATGIPARFSGSGSGTDFTLTISSLEPEDFAVYYCQQRSNWPPWTFGQGTKVEIKR
notes: Fab
ECL signal [1]: 395 ECL signal
ECL signal [2]: 138 ECL signal

B2: Fab VH1-8_IGHD2-2*01_IGHJ6*01 & L12_IGKJ1*01 (Fab, V domains shown)
VH: QVQLVQSGAEVKKPGASVKVSCKASGYTFTSYDINWVRQATGQGLEWMGWMNPNSGNTGYAQKFQGRVTMTRNTSISTAYMELSSLRSEDTAVYYCARGGYCSSTSCYADYYYYYGMDVWGQGTTVTVSS
VL: not shown
ECL signal [3]: 1750 ECL signal
ECL signal [4]: 7740 ECL signal
ECL signal [5]: 1970 ECL signal
ECL signal [6]: 1750 ECL signal
ECL signal [7]: 1530 ECL signal
ECL signal [8]: 1760 ECL signal
ECL signal [9]: 2150 ECL signal
ECL signal [10]: 1880 ECL signal

B3: Fab VH5-51_IGHD5-18*01>3_IGHJ4*01_G100R & V3-4_IGLJ1*01 (Fab, V domains shown)
VH: EVQLVQSGAEVKKPGESLKISCKGSGYSFTSYWIGWVRQMPGKGLEWMGIIYPGDSDTRYSPSFQGQVTISADKSISTAYLQWSSLKASDTAMYYCARRRYSYGYDYFDYWGQGTLVTVSS
VL: QTVVTQEPSFSVSPGGTVTLTCGLSSGSVSTSYYPSWYQQTPGQAPRTLIYSTNTRSSGVPDRFSGSILGNKAALTITGAQADDESDYYCVLYMGSGISYVFGTGTKVTVL
notes: It was expressed as a Fab: CH1 with tags from Plasmid A and lambda CL from Plasmid E; also called Fab No. 23
ECL signal [11]: 786 ECL signal
ECL signal [12]: 1110 ECL signal
ECL signal [13]: 1330 ECL signal
ECL signal [14]: 669 ECL signal
ECL signal [15]: 5470 ECL signal
ECL signal [16]: 1240 ECL signal
ECL signal [17]: 911 ECL signal
ECL signal [18]: 916 ECL signal
ECL signal [19]: 1080 ECL signal
